From article PMC12264150, “A chromatin-remodeling-independent role for ATRX in protecting centromeric cohesion” (The EMBO Journal, 2025)
Positions count from the first letter of the chain named.

B1: Wapl (1–28)-GST (domain or fragment, UniProt Q7Z5K2 1-28, looked up)
chain: MTSRFGKTYSRKGGNGSSKFDEVFSNKR
notes: Wapl residues 1–28, in pETGEX-CT; also called short Wapl fragment (residues 1–28) containing the YSR motif; Wapl (1–28)-GST WT; source: E. coli BL21 (DE3), purified (Glutathione Sepharose 4B); not shown: GST, C-terminal, kept
B2: GFP-ATRX (1394–1443)-2xStrep (domain or fragment, UniProt P46100 1394-1443, looked up)
chain: SESEDEQRPRTRSAKKAELEENQRSYKQKKKRRRIKVQEDSSSENKSNSE
notes: source: E. coli BL21 (DE3), purified (Strep-Tactin Superflow); not shown: GFP, N-terminal, kept; 2xStrep, C-terminal, kept
B3: GFP-ATRX (1394–1443)-2xStrep Q1421A (domain or fragment, UniProt P46100 1394-1443, looked up)
chain: B2 chain with Q28A
notes: as for B2
B4: GFP-ATRX (1394–1443)-2xStrep N1415A (domain or fragment, UniProt P46100 1394-1443, looked up)
chain: B2 chain with N22A
notes: as for B2
B5: GFP-ATRX (1394–1443)-2xStrep Q1416A (domain or fragment, UniProt P46100 1394-1443, looked up)
chain: B2 chain with Q23A
notes: as for B2
B6: GFP-ATRX (1394–1443)-2xStrep E1413A (domain or fragment, UniProt P46100 1394-1443, looked up)
chain: B2 chain with E20A
notes: as for B2
B7: GFP-ATRX (1394–1443)-2xStrep R1417A (domain or fragment, UniProt P46100 1394-1443, looked up)
chain: B2 chain with R24A
notes: as for B2
B8: GFP-ATRX (1394–1443)-2xStrep S1418A (domain or fragment, UniProt P46100 1394-1443, looked up)
chain: B2 chain with S25A
notes: as for B2
B9: GFP-ATRX (1394–1443)-2xStrep K1420A (domain or fragment, UniProt P46100 1394-1443, looked up)
chain: B2 chain with K27A
notes: as for B2
B10: GFP-ATRX (1394–1443)-2xStrep E1414A (domain or fragment, UniProt P46100 1394-1443, looked up)
chain: B2 chain with E21A
notes: as for B2

Legend:
MBP-Pds5B (1–300) = target: T1, MBP-Pds5B (1–300) (UniProt Q9NTI5 1-300); test: pull-down; competitive: purified MBP-Pds5B (1–300) mixed with GFP-2xStrep or increasing amounts of GFP-ATRX (1394–1443)-2xStrep (WT or Y1419A), pulled down with Wapl (1–28)-GST; conditions: both partners purified
T1 construct: Pds5B residues 1–300, in pMAL-C2E; also called recombinant MBP-Pds5B (1–300); purified MBP-Pds5B; source: E. coli BL21 (DE3), purified (Amylose Resin); not shown: MBP, N-terminal, kept
T1 sequence (looked up): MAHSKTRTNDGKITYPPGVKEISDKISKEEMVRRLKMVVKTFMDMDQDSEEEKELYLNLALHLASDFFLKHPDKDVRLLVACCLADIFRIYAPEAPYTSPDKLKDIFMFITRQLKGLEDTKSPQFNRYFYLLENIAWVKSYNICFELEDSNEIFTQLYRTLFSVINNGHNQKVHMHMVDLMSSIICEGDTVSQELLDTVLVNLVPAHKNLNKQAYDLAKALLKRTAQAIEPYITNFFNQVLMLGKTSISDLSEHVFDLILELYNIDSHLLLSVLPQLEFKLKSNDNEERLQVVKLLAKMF

GST-Pds5B (1–300) = target: T2, GST-Pds5B (1–300) (UniProt Q9NTI5 1-300); test: pull-down; recombinant GFP-ATRX (1394–1443)-2xStrep (wild-type or mutants) pulled down with GST or GST-Pds5B (1–300); immunoblot for GFP and CBB; conditions: both partners purified
T2 construct: Pds5B residues 1–300, in pGEX-4T1; also called GST-fused Pds5B (1–300) fragment; GST-Pds5B (1–300) WT; source: E. coli BL21 (DE3), purified (Glutathione Sepharose 4B); not shown: GST, N-terminal, kept
T2 sequence (looked up): T1 sequence (looked up)

| binding result (MBP-Pds5B (1–300)) | binding result (GST-Pds5B (1–300)) | Binder |
| --- | --- | --- |
| binds | – | B1 |
| binds | binds | B2 |
| – | binds | B3 |
| – | binds | B4 |
| – | binds | B5 |
| – | binds | B6 |
| – | binds | B7 |
| – | binds | B8 |
| – | binds | B9 |
| – | binds | B10 |
